Consider 25 molecules from US20240360242A1 (KISOJI BIOTECHNOLOGY, published 2024).

Test [1] concerns the target T1, recombinant human TROP2 extracellular domain (aa 1-274) comprising His tag (human, UniProt P09758 27-274).
T1 construct: Used here for all assays on recombinant human TROP2 (ELISA, immunoblot, SPR, crystal), although only some of them name the catalogue number; also called human recombinant TROP2; recombinant human TROP2 protein; not shown: His tag
T1 sequence: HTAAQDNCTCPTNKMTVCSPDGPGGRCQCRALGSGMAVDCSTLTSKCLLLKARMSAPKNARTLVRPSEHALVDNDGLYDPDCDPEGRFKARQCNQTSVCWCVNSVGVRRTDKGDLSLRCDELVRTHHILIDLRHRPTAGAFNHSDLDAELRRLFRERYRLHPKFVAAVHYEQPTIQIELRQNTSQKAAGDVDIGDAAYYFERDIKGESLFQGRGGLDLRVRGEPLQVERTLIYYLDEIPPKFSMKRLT
The test can be described thus: ELISA, coated rh TROP2, normalized to KD005.

The target in test [2] is T1, recombinant human TROP2 extracellular …. The test can be described thus: ELISA, coated rh TROP2. As for the experimental part: (§1) Human TROP2 recombinant proteins were coated on 96-well ELISA plates at the concentration of 1 μg/mL. Plates were covered with adhesive plate cover and stored at 4° C. overnight. The next day, plates were washed 3× with washing buffer (PBS with 0.1% Tween™ 20). Plates were blocked with 2% fat-free BSA in washing buffer for 1 hour at 37° C. During the incubation time, the TROP2 reference antibodies, as well as the humanized variants, were diluted in the blocking buffer to the indicated concentrations. […] After blocking, the blocking buffer was removed from the wells and 100 μL of anti-TROP2 sdAbs dilutions were transferred to the corresponding wells. Plates were covered with adhesive plates cover and incubated at 37° C. for 1 hour. During the primary antibody incubation, the secondary antibody (goat anti-human IgG, HRP conjugated) was diluted 1 in 5000 with the blocking buffer. Plates were washed 3× with blocking buffer, followed by secondary antibody incubation for another 1 hour at 37° C. After the secondary antibody incubation, plates were washed 3× with washing buffer and added with 100 μL of ELISA chemiluminescent substrate (Thermofisher). The luminescence signal was detected by SpectraMax i3x at […].
For orientation: In an ELISA, binding on a coated surface is turned into a signal by an enzyme label.

For test [3] the target is unchanged. Kind of test: ELISA, coated rh TROP2. As for the experimental part: as §1
The source holds these as a separate data set.

Read-outs that look alike come from different tables or passages of the source.

By EC50 is commonly meant the concentration needed to bring the measured effect to its halfway point.

B1: KD054 (antibody, V domains shown)
VH: QVQLQESGGGLIQPGGSLRLSCAASGFTFSGSDMSWVRQAPGKGLEWVSYITSGGTTYYADTVKGRFTISRDNSKNTLYLQMNSLRAEDTAVYRCAKSRLTDSHYVEDAWGQGTLVTVSS
notes: KD005 humanized variant
B1: in test [1], the “EC50 relative to KD005” value was 0.93 ratio to KD005. Besides, in test [2], the EC50 amounted to 70 pM and the “EC50% to KD005” value is 0.875 ratio to KD005.

B2: KD056 (antibody, V domains shown)
VH: QVQLVESGGGLIQPGGSLRLSCAASGFTFSGSDMSWVRQAPGKGLEWVSYITSGGTTYYADTVKGRFTISRDNSKNTLYLQMNSLRAEDTAVYRCAKSRLTDSHYVEDAWGQGTLVTVSS
notes: KD005 humanized variant
For B2, in test [1], the “EC50 relative to KD005” value was 1.21 ratio to KD005. Moreover, in test [2], the EC50 came to 90 pM and the “EC50% to KD005” value was 1.12 ratio to KD005.

B3: KD043 (antibody, V domains shown)
VH: EVQLLESGGGLVQPGGSLRLSCAASGFTFSGSDMSWVRQAPGKGLEWVSAITSGGTTYYADTVKGRFTISRDNSKNTLYLQMNSLRAEDTAVYYCAKSRLTDSHYVEDAWGQGTLVTVSS
notes: KD005 humanized variant
B3: the “EC50 relative to KD005” value in test [1] is 1.01 ratio to KD005. Also, in test [2], the EC50 turned out to be 90 pM and the “EC50% to KD005” value is 1.12 ratio to KD005.

B4: KD057 (antibody, V domains shown)
VH: QVQLQESGGGLIQPGGSLRLSCAASGFTFSGSDMSWVRQAPGKGLEWVSVITSGGTTYYADTVKGRFTISRDNSKNTLYLQMNSLRAEDTAVYRCAKSRLTDSHYVEDAWGQGTLVTVSS
notes: KD005 humanized variant
Take B4: the “EC50 relative to KD005” value in test [1] was 1.15 ratio to KD005. Also, in test [2], the EC50 came to 90 pM and the “EC50% to KD005” value was 1.12 ratio to KD005.

B5: KD052 (antibody, V domains shown)
VH: EVQLVESGGGLIQPGGSLRLSCAASGFTFSGSDMSWVRQAPGKGLEWVSVITSGGTTYYADTVKGRFTISRDNSKNTLYLQMNSLRAEDTAVYYCAKSRLTDSHYVEDAWGQGTLVTVSS
notes: KD005 humanized variant
Consider B5, for which, in test [1], the “EC50 relative to KD005” value is 0.93 ratio to KD005. For the same molecule, in test [2], the EC50 was 70 pM and the “EC50% to KD005” value is 0.875 ratio to KD005.

B6: KD050 (antibody, V domains shown)
VH: QVQLQESGGGLVQPGGSLRLSCAASGFTFSGSDMSWVRQAPGKGPEWVSYITSGGTTYYPDTVKGRFTISRDNSKNTLYLQMNSLKPDDTAVYRCAKSRLTDSHYVEDAWGQGTQVTVSS
notes: KD005 humanized variant
Take B6: the “EC50 relative to KD005” value in test [1] was 1.12 ratio to KD005. Also, in test [2], the EC50 is 100 pM and the “EC50% to KD005” value was 1.25 ratio to KD005.

B7: KD045 (antibody, V domains shown)
VH: EVQLLESGGGLVQPGGSLRLSCAASGFTFSGSDMSWVRQAPGKGLEWVSYITSGGTTYYADTVKGRFTISRDNSKNTLYLQMNSLRAEDTAVYRCAKSRLTDSHYVEDAWGQGTLVTVSS
notes: KD005 humanized variant
Turning to B7, in test [1], the “EC50 relative to KD005” value was 1.01 ratio to KD005. In test [2], the EC50 stood at 90 pM and the “EC50% to KD005” value is 1.12 ratio to KD005.

B8: KD044 (antibody, V domains shown)
VH: EVQLLESGGGLVQPGGSLRLSCAASGFTFSGSDMSWVRQAPGKGLEWVSYITSGGTTYYADTVKGRFTISRDNSKNTLYLQMNSLRAEDTAVYYCAKSRLTDSHYVEDAWGQGTLVTVSS
notes: KD005 humanized variant
Take B8: the “EC50 relative to KD005” value in test [1] was 0.9 ratio to KD005. In addition, in test [2], the EC50 was found to be 80 pM and the “EC50% to KD005” value was 1 ratio to KD005.

B9: KD055 (antibody, V domains shown)
VH: EVQLQESGGGLIQPGGSLRLSCAASGFTFSGSDMSWVRQAPGKGLEWVSYITSGGTTYYADTVKGRFTISRDNSKNTLYLQMNSLRAEDTAVYRCAKSRLTDSHYVEDAWGQGTLVTVSS
notes: KD005 humanized variant
In the case of B9, the “EC50 relative to KD005” value in test [1] was 1.12 ratio to KD005. In test [2], the EC50 was found to be 80 pM and the “EC50% to KD005” value is 1 ratio to KD005.

B10: KD046 (antibody, V domains shown)
VH: QVQLLESGGGLVQPGGSLRLSCAASGFTFSGSDMSWVRQAPGKGPEWVSYITSGGTTYYADTVKGRFTISRDNSKNTLYLQMNSLRAEDTAVYYCAKSRLTDSHYVEDAWGQGTLVTVSS
notes: KD005 humanized variant
In the case of B10, in test [1], the “EC50 relative to KD005” value is 0.9 ratio to KD005. For the same molecule, in test [2], the EC50 was determined as 80 pM and the “EC50% to KD005” value is 1 ratio to KD005.

B11: KD027 (antibody, V domains shown)
VH: QVQLQESGGGMVQVGGSLRLSCAASGFPFSSADMSWVRQAPGKGPEWVSYINADGSKTYYPDSVKGRFTISRDNAKNTLYLQMNSLKPEDTAVYRCARAKLTDTHYVEDYWGQGTQVTVSS
notes: KD002 humanized variant
In the case of B11, in test [3], the EC50 came out at 90 pM.

B12: KD039 (antibody, V domains shown)
VH: QVQLQESGGGMVQPGGSLRLSCAASGFPFSSADMSWVRQAPGKGLEWVSYINADGSKTYYADTVKGRFTISRDNSKNTLYLQMNSLRAEDTAVYRCARAKLTDTHYVEDYWGQGTQVTVSS
notes: KD002 humanized variant
Consider B12, for which the EC50 in test [3] stood at 150 pM.

B13: KD041 (antibody, V domains shown)
VH: QVQLQESGGGLVQPGGSLRLSCAASGFPFSSADMSWVRQAPGKGLEWVSYINAEGSKTYYADTVKGRFTISRDNSKNTLYLQMNSLRAEDTAVYRCARAKLTDTHYVEDYWGQGTMVTVSS
notes: KD002 humanized variant
For B13, the EC50 in test [3] turned out to be 150 pM.

B14: KD033 (antibody, V domains shown)
VH: QVQLQESGGGLVQPGGSLRLSCAASGFPFSSADMSWVRQAPGKGLEWVSVINADGSKTYYADTVKGRFTISRDNSKNTLYLQMNSLRAEDTAVYRCARAKLTDTHYVEDYWGQGTMVTVSS
notes: KD002 humanized variant
On to B14, for which the EC50 in test [3] was 130 pM.

B15: KD040 (antibody, V domains shown)
VH: QVQLQESGGGLVQPGGSLRLSCAASGFPFSSADMSWVRQAPGKQREWVSYINADGSKTYYADTVKGRFTISRDNSKNTLYLQMNSLRAEDTAVYRCARAKLTDTHYVEDYWGQGTMVTVSS
notes: KD002 humanized variant
As for B15, the EC50 in test [3] amounted to 50 pM.

B16: KD036 (antibody, V domains shown)
VH: QVQLQESGGGLVQPGGSLRLSCAASGFPFSSADMSWVRQAPGKGLEWVSYINADGSKTYYPDTVKGRFTISRDNSKNTLYLQMNSLRAEDTAVYRCARAKLTDTHYVEDYWGQGTMVTVSS
notes: KD002 humanized variant
On to B16, for which, in test [3], the EC50 came out at 130 pM.

B17: KD029 (antibody, V domains shown)
VH: QVQLQESGGGLVQPGGSLRLSCAASGFPFSSADMSWVRQAPGKGPEWVSYINADGSKTYYPDTVKGRFTISRDNSKNTLYLQMNNLRAEDTALYRCARAKLTDTHYVEDYWGQGTMVTVSS
notes: KD002 humanized variant
Consider B17, for which the EC50 in test [3] was found to be 160 pM.

B18: KD031 (antibody, V domains shown)
VH: EVQLQESGGGLVQPGGSLRLSCAASGFPFSSADMSWVRQAPGKGLEWVSYINADGSKTYYADTVKGRFTISRDNSKNTLYLQMNSLRAEDTAVYRCARAKLTDTHYVEDYWGQGTMVTVSS
notes: KD002 humanized variant
B18: in test [3], the concentration giving a half-maximal response (EC50) turned out to be 110 pM.

B19: KD035 (antibody, V domains shown)
VH: QVQLQESGGGLVQPGGSLRLSCAASGFPFSSADMSWVRQAPGKGPEWVSYINADGSKTYYADTVKGRFTISRDNSKNTLYLQMNSLRAEDTAVYRCARAKLTDTHYVEDYWGQGTMVTVSS
notes: KD002 humanized variant
B19: the EC50 in test [3] amounted to 120 pM.

B20: KD038 (antibody, V domains shown)
VH: QVQLQESGGGLVQPGGSLRLSCAASGFPFSSADMSWVRQAPGKGLEWVSYINADGSKTYYADTVKGRFTISRDNSKNTLYLQMNSLRAEDTALYRCARAKLTDTHYVEDYWGQGTMVTVSS
notes: KD002 humanized variant
B20: the EC50 in test [3] amounted to 260 pM.

B21: KD032 (antibody, V domains shown)
VH: QVQLLESGGGLVQPGGSLRLSCAASGFPFSSADMSWVRQAPGKGLEWVSYINADGSKTYYADTVKGRFTISRDNSKNTLYLQMNSLRAEDTAVYRCARAKLTDTHYVEDYWGQGTMVTVSS
notes: KD002 humanized variant
As for B21, the EC50 in test [3] was 150 pM.

B22: KD042 (antibody, V domains shown)
VH: QVQLQESGGGLVQPGGSLRLSCAASGFPFSSADMSWVRQAPGKGLEWVSYINANGSKTYYADTVKGRFTISRDNSKNTLYLQMNSLRAEDTAVYRCARAKLTDTHYVEDYWGQGTMVTVSS
notes: KD002 humanized variant
As for B22, in test [3], the EC50 was found to be 70 pM.

B23: KD034 (antibody, V domains shown)
VH: QVQLQESGGGLVQPGGSLRLSCAASGFPFSSADMSWVRQAPGKGLEWVSYINADGSKTYYADTVKGRFTISRDNSKNTLYLQMNSLRAEDTAVYYCARAKLTDTHYVEDYWGQGTMVTVSS
notes: KD002 humanized variant
For the molecule B23, in test [3], the EC50 stood at 130 pM.

B24: KD037 (antibody, V domains shown)
VH: QVQLQESGGGLVQPGGSLRLSCAASGFPFSSADMSWVRQAPGKGLEWVSYINADGSKTYYADTVKGRFTISRDNSKNTLYLQMNNLRAEDTAVYRCARAKLTDTHYVEDYWGQGTMVTVSS
notes: KD002 humanized variant
Turning to B24, the EC50 in test [3] is 180 pM.

B25: KD028 (antibody, V domains shown)
VH: EVQLLESGGGLVQPGGSLRLSCAASGFPFSSADMSWVRQAPGKGLEWVSVINADGSKTYYADTVKGRFTISRDNSKNTLYLQMNSLRAEDTAVYYCARAKLTDTHYVEDYWGQGTMVTVSS
notes: KD002 humanized variant
For the molecule B25, in test [3], the EC50 was found to be 140 pM.
